The subject of one assay is C. neoformans H99. Put plainly: Biofilm development, XTT reduction trial. Format: cell-based, Cryptococcus neoformans. The conditions noted are these: AcM 25 μg/ml, 48 hours at 37° C., vs fungus without treatment, p<0.05. The method, then:
(§1) C. neoformans (H99 and Cap67) and Candida albicans were cultivated in Sabouraud media for 24 hours at 30° C. Cellular suspensions were centrifuged for 5 minutes at 3000 g, washed 3 times in PBC and suspended in minimum media (20 mg/ml thiamin, 30 mm glucose, 26 mM glycine, 20 mM MgSO4, and 58.8 mM KH2PO4). Then, they were added to 96-well plates (100 μl/well—1×10^6 células/ml) and cultivated for 48 hours at 37° C. at presence of AcM (HC6/DD11 and AF1/CC5) and AcM anti-GXM 18B7 (only to H99) at 25 μg/ml concentration, keeping under agitation for 30 minutes, for AcM total homogenization with fungi. As control, drug AmB was used at 1 μg/ml concentration.
(§2) Two analysis systems were performed: in the first, cells were washed, so that non-adhering cells were removed and only cells bonded to biofilm under development remained; in the second system, cells were not washed and all cells adhered or not to substrate were quantified.
(§3) Viable cell metabolic activity in both trials was assessed by the method based on decrease of XTT (2-methoxy-4-nitro-5-sulfophenyl)-5-[(phenylamino) carbonyl]-2H-tetrazolium hydroxide) in spectrophotometer at 492 nm of wavelength.
(§4) AcMs were tested (25 μg/ml) against three fungus species (C. albicans, C. neoformans—H99—and acapsular mutant of C. neoformans—Cap67), with control by AcM anti-GXM 18B7 (25 μg/ml) only to H99. In the first assay (FIGS. 14A and B), cellular suspensions were washed to remove non-adhering cells to substrate. […] In second assay (FIGS. 14C and D), cellular suspensions were not washed, and again AcM inhibited biofilm development (p<0.05) compared to cell not treated with antibodies. In both assays, cell growth was observed.
AcMs were compared to AcM anti-GXM 18B7 concerning biofilm development inhibition.
A general note: Formazan colour is commonly taken as a measure of viable cells.

The test system of assay [1] is acapsular mutant of C. neoformans Cap67. Put plainly: Biofilm development, XTT reduction trial. In kind it is cell-based, Cryptococcus neoformans. The following applies: AcM 25 μg/ml, 48 hours at 37° C., vs fungus without treatment, p<0.05. The protocol: as §1, §2, §3, §4
Assay [2] relates to C. albicans. Put plainly: Indirect ELISA against intact cells using poly-L-Lysine (PL). In kind it is binding, Candida albicans. The conditions noted are these: 10^4 and 10^5 cells/ml. The protocol:
For this test, C. neoformans (H99), Candida albicans, Giardia lamblia, human lung line cell A549 (ATCC), Escherichia coli and Staphylococcus aureus. Cells were washed in PBS three times and suspended at 10^7 cell/ml density in poly-L-Lysine (5 μg/ml in PBS) for adherence at night at 4° C. The next day, plates were blocked with PBS/BSA 5% and incubated for 1 hour at 37° C., then they are incubated for 1 hour at 37° C. with anti-chitooligomer AcM at 50 μg/ml concentration and diluted at 5 μg/ml. Then, washing with PBS/Tween 0.05% was performed for 3 times and anti-IgM murine peroxidase was added diluted 1:5000 and incubated for 2 hours at 37° C. Plates were washed again and TMB was added and incubated for 30 minutes at 37° C.
Reaction was stopped with HCl 1 N and reading with spectrophotometer at 450 nm. After this trial, seriated dilutions were performed at density of cells 10^7 until 10 cells/ml to fungi and 10^7 until 10^4 cells/ml to other cellular types and tested of AcM anti-chitooligomer at 25 μg/ml concentration, followed by the same procedures abovementioned. […]
In this trial, 10^7 cell/ml of C. albicans were used to perform an absorbance curve, in which it was observed that there was a 25 μg/ml concentration reliable signal of both AcM, as above such value the curve starts to enter in plateau, as provided in FIG. 9. […]
Background: An ELISA detects its analyte on a solid surface through an enzyme-linked reagent.

The next assay relates to C. neoformans strain H99. Put plainly: Survival trial, lethal i.p. challenge. The following applies: synergic group: AcM 85 μg/animal with AmB 0.25 mg/kg. Format: in vivo, Balb/C line mice. The protocol: Balb/C line mice (n=7) were lethally challenged via i.p. with 10^5 cells in PBS of C. neoformans (H99) and treated 2 hours later with 100 μl of AmB (2.5 mg/kg and 0.25 mg/kg), 100 μl of AcM (85 μg/ml) and 100 μl of AcM and AmB combined solution (0.25 mg/kg). Control animals were challenged only by C. neoformans (H99) or only with 100 μl of a solution of PBS, AmB (2.5 mg/kg) or AcM (85 μg/ml) without fungus (adapted from Liedke et al.). Survival rate was achieved and analysis was extended up to 90 days after infection, presenting statistical value with p<0.005.
Mice were lethally challenged with inoculant i.p. of 1×10^5 cells of yeast C. neoformans strain H99. After 2 hours, they were treated with PBS (negative control), 85 μg/animal of AcM (HC6/DD11) in isolate form, 0.25 or 2.5 mg/kg of AmB in isolate form, and in synergic form, AcM keeping test concentrations. Treatments were repeated for another two times, with 10-day interval.

For assay [3], the system named is C. albicans. In words: Dot Blot against intact cells using PL. In kind it is binding, Candida albicans. The conditions noted are these: AcM 25 μg/ml; cells in 5 μg/ml PL diluted in base 10 from 10^7 cell/ml; 3 independent experiments. The protocol: C. neoformans (H99) and Candida albicans in 10^7 cell/ml density until 10 cells/ml were suspended in poly-L-Lysine solution (5 μg/ml in PBS) and 10 μl were loaded in nitrocellulose membranes. Then, the same steps for ELISA were followed, however, 25 μg/ml concentration of AcM anti-chitooligomers. Membrane was cut and deposited in 96-well plates, to which 50 μl TMB was added and incubated for 30 minutes at 37° C. Volume was removed and transferred to a new plate, to which stop reaction was added with HCl 1 N and read with spectrophotometer at 450 nm.
The principle used in this trial was the same of ELISA and was based on the load presented by fungi. As nitrocellulose membrane has negative load, PL was used to check positive load to fungus, and consequently have bond to membrane.
As provided in FIG. 11, it was initially diluted in 5 μg/ml of PL at 10^7 cell/ml concentration and diluted in base 10. In this trial, it was evidenced that AcM HC6/DD11 was capable to bond to C. albicans up to 10^4 cell/ml order, which counters C. neoformans, that was identified to 10^6 cell/ml order. 3 independent experiments were performed to each trial. Example 16.7—Immunofluorescence

B1: HC6/DD11: murine IgM monoclonal antibody against chitooligomers (chitotriose); VH SEQ ID NO: 15, VL SEQ ID NO: 16 (antibody, listed as Mus musculus, V domains shown)
VH: STGQVKLEESGGGLVQPGGSRKLSCAASGFTFSDYGMAWVRQAPGKGPEWVAFISNLAYSIYYADTVTGRFTISRENAKNTLYLEMSSLRSEDTAMYYCARDYYGSSYWYFDVWGAGTTVTAPC
VL: ATNSCISRGEVTITCSASSSVSYMHWFQQKPGTSPKLWIYSTSNLASGVPARFSGSGSGTSYSLTISRMEAEDAATYYCQQRSSYPLTFGAGTKLELKRADAAPTVSLET
Consider B1, for which the “biofilm development (XTT reduction)” value (in the assay with C. neoformans H99 (non-washed cells); in the assay with C. neoformans H99 (washed cells); in assay [1] (non-washed cells); in assay [1] (washed cells)) was “reduced biofilm development significantly” throughout. Further, in the assay on C. albicans [2], the “ELISA signal in cell saturation curve” value is “slightly more sensitive”. In addition, in the assay on C. neoformans strain H99 (followed up to 90 days), the “death of infected animals” value is listed as “did not die”. In addition, the survival in the assay with C. neoformans strain H99 (up to 90 days, n=7) is recorded as 100%. In addition, the “cell density down to which AcM was capable to bond (Dot Blot)” value with C. albicans [3] is given as 10^4 cell/ml.

For the origin of these results see patent US12686712B2, “Antibody, related use, pharmaceutical composition including method for diagnosing fungal infections, fungal infection diagnosis kit and method for treating fungal infections” (priority 2020, dated 2026).
